The series has as its target T1, peptide substrate MCA-RPPGFSAFK(Dnp)-OH (R&D Systems Cat. No. ES005).
T1 chain: RPPGFSAFK

B1: Neprilysin (R&D Systems, Cat. No 1182-ZNC) (protein)
chain: YDDGICKSSDCIKSAARLIQNMDATTEPCTDFFKYACGGWLKRNVIPETSSRYGNFDILRDELEVVLKDVLQEPKTEDIVAVQKAKALYRSCINESAIDSRGGEPLLKLLPDIYGWPVATENWEQKYGASWTAEKAIAQLNSKYGKKVLINLFVGTDDKNSVNHVIHIDQPRLGLPSRDYYECTGIYKEACTAYVDFMISVARLIRQEERLPIDENQLALEMNKVMELEKEIANATAKPEDRNDPMLLYNKMTLAQIQNNFSLEINGKPFSWLNFTNEIMSTVNISITNEEDVVVYAPEYLTKLKPILTKYSARDLQNLMSWRFIMDLVSSLSRTYKESRNAFRKALYGTTSETATWRRCANYVNGNMENAVGRLYVEAAFAGESKHVVEDLIAQIREVFIQTLDDLTWMDAETKKRAEEKALAIKERIGYPDDIVSNDNKLNNEYLELNYKEDEYFENIIQNLKFSQSKQLKKLREKVDKDEWISGAAVVNAFYSSGRNQIVFPAGILQPPFFSAQQSNSLNYGGIGMVIGHEITHGFDDNGRNFNKDGDLVDWWTQQSASNFKEQSQCMVYQYGNFSWDLAGGQHLNGINTLGENIADNGGLGQAYRAYQNYIKKNGEEKLLPGLDLNHKQLFFLNFAQVWCGTYRPEYAVNSIKTDVHSPGNFRIIGTLQNSAEFSEAFHCRKNSYMNPEKKCRVW
As for B1, the Km [µM] (apparent Km, hydrolysis of fluorogenic peptide substrate) is 3.2 µM and the Vmax was found to be 2930 s⁻¹.

The record behind these values is patent US20160168253.
